IC50 data for five molecules are collected here from patent US20140087995A1 (published 2014).

Numbered stars: 1 amine (or outer) side, 2 acyl side, 3 side chain; on linkers, the order of the positions; unused ones are H or OH. Bridge positions count the residues as written; N and C are the ends. Side chains are listed from the residue outwards. Ends that are not written are not given here. * marks the point of attachment. C20 diacid = O=C(O)CCCCCCCCCCCCCCCCCCC(=O)*; γGlu = O=C(O)[C@H](CCC(=O)[*:2])N[*:1]

For the experiment, the target named is T1, human amylin receptor (human, UniProt P30988 25-474; O60896 24-148, limits assumed).
T1 construct: whole, on cells; Calcitonin receptor plus RAMP-3 gives the amylin 3(a) receptor; membranes of Amylin 3(a)/CRE-luc cells were used; also called hAmylin-R; hAmylinR
T1 sequence (looked up) 1: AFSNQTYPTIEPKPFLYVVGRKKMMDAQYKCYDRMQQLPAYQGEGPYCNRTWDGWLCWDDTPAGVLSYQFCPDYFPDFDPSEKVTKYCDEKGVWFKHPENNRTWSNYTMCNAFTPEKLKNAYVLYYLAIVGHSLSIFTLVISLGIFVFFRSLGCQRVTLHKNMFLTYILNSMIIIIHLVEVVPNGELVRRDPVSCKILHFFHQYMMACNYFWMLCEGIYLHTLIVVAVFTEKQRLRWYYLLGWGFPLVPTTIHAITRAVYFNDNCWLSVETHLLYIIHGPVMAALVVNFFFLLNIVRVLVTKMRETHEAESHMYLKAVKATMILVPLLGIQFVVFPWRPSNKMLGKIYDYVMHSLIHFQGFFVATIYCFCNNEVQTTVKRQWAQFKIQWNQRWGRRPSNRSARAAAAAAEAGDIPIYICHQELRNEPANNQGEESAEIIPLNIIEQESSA
T1 sequence (looked up) 2: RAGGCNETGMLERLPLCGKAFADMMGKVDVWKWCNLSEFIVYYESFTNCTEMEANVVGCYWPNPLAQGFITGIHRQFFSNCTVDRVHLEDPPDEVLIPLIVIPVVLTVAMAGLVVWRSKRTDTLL
The experiment is described as follows: SPA competition binding, displacement of 125I-rat amylin from membranes with human amylin 3(a) receptor (Assay V). The method, boiled down: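 SPA beads + BHK amylin 3(a)/CRE-luc membranes, 35 ng/μL final; buffer 50 mM Hepes pH 7.4, 1 mM CaCl2, 5 mM MgCl₂, 0.1% OA, 0.02% Tween20. 120 min, 25° C, shaken; scintillation count. IC₅₀ by one-site binding competition fit, taken as receptor affinity.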
On the technique in general: In a radioligand displacement assay an active substance lowers the binding of a labelled ligand.

B1: N^ε1-[(4S)-4-carboxy-4-(19-carboxynonadecanoylamino)butanoyl]-[His14,Arg17,Pro21,Pro27,Pro34,Pro37]-h-amylin (peptide)
peptide: K([γGlu-C20 diacid])CNTATCATQRLAHFLRHSSPNFGAIPSSTNVGPNTP-NH2
modifications: disulfide 2-7; N-terminus assumed
SMILES: CC[C@H](C)[C@H](NC(=O)[C@H](C)NC(=O)CNC(=O)[C@H](Cc1ccccc1)NC(=O)[C@H](CC(N)=O)NC(=O)[C@@H]1CCCN1C(=O)[C@H](CO)NC(=O)[C@H](CO)NC(=O)[C@H](Cc1c[nH]cn1)NC(=O)[C@H](CCCNC(=N)N)NC(=O)[C@H](CC(C)C)NC(=O)[C@H](Cc1ccccc1)NC(=O)[C@H](Cc1c[nH]cn1)NC(=O)[C@H](C)NC(=O)[C@H](CC(C)C)NC(=O)[C@H](CCCNC(=N)N)NC(=O)[C@H](CCC(N)=O)NC(=O)[C@@H](NC(=O)[C@H](C)NC(=O)[C@@H]1CSSC[C@H](NC(=O)[C@@H](N)CCCCNC(=O)CC[C@H](NC(=O)CCCCCCCCCCCCCCCCCCC(=O)O)C(=O)O)C(=O)N[C@@H](CC(N)=O)C(=O)N[C@@H]([C@@H](C)O)C(=O)N[C@@H](C)C(=O)N[C@@H]([C@@H](C)O)C(=O)N1)[C@@H](C)O)C(=O)N1CCC[C@H]1C(=O)N[C@@H](CO)C(=O)N[C@@H](CO)C(=O)N[C@H](C(=O)N[C@@H](CC(N)=O)C(=O)N[C@H](C(=O)NCC(=O)N1CCC[C@H]1C(=O)N[C@@H](CC(N)=O)C(=O)N[C@H](C(=O)N1CCC[C@H]1C(N)=O)[C@@H](C)O)C(C)C)[C@@H](C)O
notes: also called 14H, 17R, 21P, 27P, 34P, 37P
As to B1, the IC50 (usually the point on the concentration scale where inhibition reaches its midpoint) is 0.131 nM.

B2: N^ε1-[(4S)-4-carboxy-4-[[(4S)-4-carboxy-4-(19-carboxynonadecanoylamino)butanoyl]amino]butanoyl]-[Asp14,Arg17,Pro21,Pro27,Asp35]-h-amylin (peptide)
peptide: K([γGlu-γGlu-C20 diacid])CNTATCATQRLADFLRHSSPNFGAIPSSTNVGSDTY-NH2
modifications: disulfide 2-7; N-terminus assumed
SMILES: CC[C@H](C)[C@H](NC(=O)[C@H](C)NC(=O)CNC(=O)[C@H](Cc1ccccc1)NC(=O)[C@H](CC(N)=O)NC(=O)[C@@H]1CCCN1C(=O)[C@H](CO)NC(=O)[C@H](CO)NC(=O)[C@H](Cc1c[nH]cn1)NC(=O)[C@H](CCCNC(=N)N)NC(=O)[C@H](CC(C)C)NC(=O)[C@H](Cc1ccccc1)NC(=O)[C@H](CC(=O)O)NC(=O)[C@H](C)NC(=O)[C@H](CC(C)C)NC(=O)[C@H](CCCNC(=N)N)NC(=O)[C@H](CCC(N)=O)NC(=O)[C@@H](NC(=O)[C@H](C)NC(=O)[C@@H]1CSSC[C@H](NC(=O)[C@@H](N)CCCCNC(=O)CC[C@H](NC(=O)CC[C@H](NC(=O)CCCCCCCCCCCCCCCCCCC(=O)O)C(=O)O)C(=O)O)C(=O)N[C@@H](CC(N)=O)C(=O)N[C@@H]([C@@H](C)O)C(=O)N[C@@H](C)C(=O)N[C@@H]([C@@H](C)O)C(=O)N1)[C@@H](C)O)C(=O)N1CCC[C@H]1C(=O)N[C@@H](CO)C(=O)N[C@@H](CO)C(=O)N[C@H](C(=O)N[C@@H](CC(N)=O)C(=O)N[C@H](C(=O)NCC(=O)N[C@@H](CO)C(=O)N[C@@H](CC(=O)O)C(=O)N[C@H](C(=O)N[C@@H](Cc1ccc(O)cc1)C(N)=O)[C@@H](C)O)C(C)C)[C@@H](C)O
notes: also called 14D, 17R, 21P, 27P, 35D
B2 showed an IC50 of 0.411 nM.

B3: N^ε1-[(4S)-4-carboxy-4-[[(4S)-4-carboxy-4-(19-carboxynonadecanoylamino)butanoyl]amino]butanoyl]-[Asp14,Arg17,Pro21,Pro27,Arg35]-h-amylin (peptide)
peptide: K([γGlu-γGlu-C20 diacid])CNTATCATQRLADFLRHSSPNFGAIPSSTNVGSRTY-NH2
modifications: disulfide 2-7; N-terminus assumed
SMILES: CC[C@H](C)[C@H](NC(=O)[C@H](C)NC(=O)CNC(=O)[C@H](Cc1ccccc1)NC(=O)[C@H](CC(N)=O)NC(=O)[C@@H]1CCCN1C(=O)[C@H](CO)NC(=O)[C@H](CO)NC(=O)[C@H](Cc1c[nH]cn1)NC(=O)[C@H](CCCNC(=N)N)NC(=O)[C@H](CC(C)C)NC(=O)[C@H](Cc1ccccc1)NC(=O)[C@H](CC(=O)O)NC(=O)[C@H](C)NC(=O)[C@H](CC(C)C)NC(=O)[C@H](CCCNC(=N)N)NC(=O)[C@H](CCC(N)=O)NC(=O)[C@@H](NC(=O)[C@H](C)NC(=O)[C@@H]1CSSC[C@H](NC(=O)[C@@H](N)CCCCNC(=O)CC[C@H](NC(=O)CC[C@H](NC(=O)CCCCCCCCCCCCCCCCCCC(=O)O)C(=O)O)C(=O)O)C(=O)N[C@@H](CC(N)=O)C(=O)N[C@@H]([C@@H](C)O)C(=O)N[C@@H](C)C(=O)N[C@@H]([C@@H](C)O)C(=O)N1)[C@@H](C)O)C(=O)N1CCC[C@H]1C(=O)N[C@@H](CO)C(=O)N[C@@H](CO)C(=O)N[C@H](C(=O)N[C@@H](CC(N)=O)C(=O)N[C@H](C(=O)NCC(=O)N[C@@H](CO)C(=O)N[C@@H](CCCNC(=N)N)C(=O)N[C@H](C(=O)N[C@@H](Cc1ccc(O)cc1)C(N)=O)[C@@H](C)O)C(C)C)[C@@H](C)O
notes: also called 14D, 17R, 21P, 27P, 35R
B3: the IC50 was 0.697 nM.

B4: N^ε1-[(4S)-4-carboxy-4-(19-carboxynonadecanoylamino)butanoyl]-[His14,Arg17,Pro21,Pro27]-h-amylin (peptide)
peptide: K([γGlu-C20 diacid])CNTATCATQRLAHFLRHSSPNFGAIPSSTNVGSNTY-NH2
modifications: disulfide 2-7; N-terminus assumed
SMILES: CC[C@H](C)[C@H](NC(=O)[C@H](C)NC(=O)CNC(=O)[C@H](Cc1ccccc1)NC(=O)[C@H](CC(N)=O)NC(=O)[C@@H]1CCCN1C(=O)[C@H](CO)NC(=O)[C@H](CO)NC(=O)[C@H](Cc1c[nH]cn1)NC(=O)[C@H](CCCNC(=N)N)NC(=O)[C@H](CC(C)C)NC(=O)[C@H](Cc1ccccc1)NC(=O)[C@H](Cc1c[nH]cn1)NC(=O)[C@H](C)NC(=O)[C@H](CC(C)C)NC(=O)[C@H](CCCNC(=N)N)NC(=O)[C@H](CCC(N)=O)NC(=O)[C@@H](NC(=O)[C@H](C)NC(=O)[C@@H]1CSSC[C@H](NC(=O)[C@@H](N)CCCCNC(=O)CC[C@H](NC(=O)CCCCCCCCCCCCCCCCCCC(=O)O)C(=O)O)C(=O)N[C@@H](CC(N)=O)C(=O)N[C@@H]([C@@H](C)O)C(=O)N[C@@H](C)C(=O)N[C@@H]([C@@H](C)O)C(=O)N1)[C@@H](C)O)C(=O)N1CCC[C@H]1C(=O)N[C@@H](CO)C(=O)N[C@@H](CO)C(=O)N[C@H](C(=O)N[C@@H](CC(N)=O)C(=O)N[C@H](C(=O)NCC(=O)N[C@@H](CO)C(=O)N[C@@H](CC(N)=O)C(=O)N[C@H](C(=O)N[C@@H](Cc1ccc(O)cc1)C(N)=O)[C@@H](C)O)C(C)C)[C@@H](C)O
notes: also called 14H, 17R, 21P, 27P
In the case of B4, the IC50 came out at 0.169 nM.

B5: N^ε1-[(4S)-4-carboxy-4-[[(4S)-4-carboxy-4-(19-carboxynonadecanoylamino)butanoyl]amino]butanoyl]-[Asp14,Arg17,Pro21,Pro27,Pro34,Glu35]-h-amylin (peptide)
peptide: K([γGlu-γGlu-C20 diacid])CNTATCATQRLADFLRHSSPNFGAIPSSTNVGPETY-NH2
modifications: disulfide 2-7; N-terminus assumed
SMILES: CC[C@H](C)[C@H](NC(=O)[C@H](C)NC(=O)CNC(=O)[C@H](Cc1ccccc1)NC(=O)[C@H](CC(N)=O)NC(=O)[C@@H]1CCCN1C(=O)[C@H](CO)NC(=O)[C@H](CO)NC(=O)[C@H](Cc1c[nH]cn1)NC(=O)[C@H](CCCNC(=N)N)NC(=O)[C@H](CC(C)C)NC(=O)[C@H](Cc1ccccc1)NC(=O)[C@H](CC(=O)O)NC(=O)[C@H](C)NC(=O)[C@H](CC(C)C)NC(=O)[C@H](CCCNC(=N)N)NC(=O)[C@H](CCC(N)=O)NC(=O)[C@@H](NC(=O)[C@H](C)NC(=O)[C@@H]1CSSC[C@H](NC(=O)[C@@H](N)CCCCNC(=O)CC[C@H](NC(=O)CC[C@H](NC(=O)CCCCCCCCCCCCCCCCCCC(=O)O)C(=O)O)C(=O)O)C(=O)N[C@@H](CC(N)=O)C(=O)N[C@@H]([C@@H](C)O)C(=O)N[C@@H](C)C(=O)N[C@@H]([C@@H](C)O)C(=O)N1)[C@@H](C)O)C(=O)N1CCC[C@H]1C(=O)N[C@@H](CO)C(=O)N[C@@H](CO)C(=O)N[C@H](C(=O)N[C@@H](CC(N)=O)C(=O)N[C@H](C(=O)NCC(=O)N1CCC[C@H]1C(=O)N[C@@H](CCC(=O)O)C(=O)N[C@H](C(=O)N[C@@H](Cc1ccc(O)cc1)C(N)=O)[C@@H](C)O)C(C)C)[C@@H](C)O
notes: also called 14D, 17R, 21P, 27P, 34P, 35E
The molecule B5 came in with an IC50 of 0.172 nM.
